Results published in patent US20250215048A1 (MACFARLANE BURNET INSTITUTE FOR MEDICAL RESEARCH AND PUBLIC …, published 2025).

T1: dimeric maltose binding protein (MBP)-CD81-LEL113-201 (UniProt P60033 113-201)
T1 construct: range 113-201; Coated on ELISA plates; The order of the parts follows the printed name, and no linker is stated; also called recombinant CD81
T1 sequence: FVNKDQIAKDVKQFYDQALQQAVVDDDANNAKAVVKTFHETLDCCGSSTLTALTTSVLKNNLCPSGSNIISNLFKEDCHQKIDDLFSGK


Key:
[1] = molecular target: Con1 HMW1 Δ123 (hepatitis C virus genotype 1b, strain Con1) (UniProt Q9WMX2); assay: direct ELISA on coated antigen; ratio of curve mid-points
[2] = molecular target: S52 HMW1 Δ123 (hepatitis C virus genotype 3a, strain S52); assay: as above
[3] = molecular target: H77c HMW1 Δ123 (hepatitis C virus genotype 1a, strain H77c) (UniProt P27958); assay: as above
[4] = molecular target: T1, dimeric maltose binding protein …; assay: sandwich ELISA, MBP-CD81-LEL coated, anti-HIS detection

Row | Molecule | binding to HMW1 Δ123 relative to H77c HMW1 Δ123 [1] | binding to HMW1 Δ123 relative to monomeric Δ123 of corresponding strain [1] | binding to HMW1 Δ123 relative to H77c HMW1 Δ123 [2] | binding to HMW1 Δ123 relative to monomeric Δ123 of corresponding strain [2] | binding to HMW1 Δ123 relative to monomeric Δ123 of corresponding strain [3] | binding result [4]
1 | AR3C (antibody) | 3.92 fold | 0.13 fold | 6.17 fold | 0.54 fold | 0.18 fold | 
2 | HC-11 (antibody) | 6.97 fold | 0.28 fold | 1 fold | < 0.2 fold | 0.21 fold | 
3 | AR3B (antibody) | < 6.58 fold | 0.17 fold | < 1.68 fold | < 0.09 fold | < 0.37 fold | 
4 | AR3D (antibody) | 4.73 fold | 0.08 fold |  |  | < 0.17 fold | 
5 | CBH-4B (antibody) | < 1 fold | < 0.24 fold | < 1 fold | < 0.62 fold | < 0.27 fold | 
6 | HCV1 (antibody) | 2.05 fold | 1.46 fold | 2.08 fold | 0.92 fold | 1.21 fold | 
7 | CBH-4D (antibody) | < 1.23 fold | < 0.11 fold | < 1.68 fold | < 0.07 fold | < 0.27 fold | 
8 | Con1 Δ123 glycoproteins, unfractionated (cell culture supernatant and TALON eluate) (other, Mixture of monomers, dimers and HMW forms as secreted by FS293F cells) GTYGSSGQLVNTNGSWHINRTALNCNDSLNTGFLAALFYVHKFNSSGCPERMASCGSSGCWHYAPRPCGIVPAAQVCGPVYCFTPSPVVVGTTDRFGVPTYSWGENETDVLLLNNTRPPQGNWFGCTWMNSTGFTKTCGGPPCGSSGCPTDCFRKHPEATYTKCGSGPWLTPRCLVHYPYRLWHYPCTVNFTIFKVRMYVGGVEHRLEAACNWTRGERCNLEDRDRSEHHHHHH |  |  |  |  |  | binds
9 | S52 Δ123 glycoproteins, unfractionated (cell culture supernatant and TALON eluate) (other, Mixture of monomers, dimers and HMW forms as secreted by FS293F cells) ETHQKLQLVNTNGSWHINSTALNCNESINTGFIAGLFYYHKFNSTGCPQRLSSCGSSGCWHYAPRPCSVVPASSVCGPVYCFTPSPVVVGTTDIKGKPTYNWGENETDVFLLESLRPPSGRWFGCAWMNSTGFLKTCGAPPCGSSGCPTDCFRKHPEATYSRCGAGPWLTPRCMVDYPYRLWHYPCTVNFTLFKVRMFVGGFEHRFTAACNWTRGERCNIEDRDRSEHHHHHH |  |  |  |  |  | binds
